This note sets out measurements from patent US20230111363A1.

The Kd is the free concentration of one partner at which half of the binding sites on the other are occupied at equilibrium, for simple one-to-one binding.

For test [1], the target named is human FcγRIIIA_F158 (CD16a) extracellular domain (human) (UniProt P08637). The test can be described thus: SPR (Biacore T100), antibody captured on Protein A, FcγR ECD as analyte, steady state, 25 C.
The target in test [2] is human FcγRIIA_131H (CD32a) extracellular domain (human) (UniProt P12318). The description is as above.
Test [3] addresses human FcγRIIA_131R (CD32a) extracellular domain (human) (UniProt P12318). The description is as above.
Test [4] deals with human FcγRIIb (CD32b) extracellular domain (human) (UniProt P31994). The test is described as above.
Test [5] has as its target human FcγRI (CD64) extracellular domain (human) (UniProt P12314). Put plainly: SPR (Biacore T100), antibody captured on Protein A, FcγR ECD as analyte, 25 C. On the technique in general: In SPR one partner is held on a chip, and binding of the other changes the refractive index at the surface.

Chain of human FcγRIIA_131H (CD32a) extracellular domain (human) (P12318 34-217): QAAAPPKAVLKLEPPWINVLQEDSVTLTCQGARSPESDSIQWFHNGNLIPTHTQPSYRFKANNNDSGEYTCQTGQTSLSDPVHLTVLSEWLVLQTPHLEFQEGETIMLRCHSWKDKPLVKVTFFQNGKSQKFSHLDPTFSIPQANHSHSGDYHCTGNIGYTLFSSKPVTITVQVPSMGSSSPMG
Chain of human FcγRI (CD64) extracellular domain (human) (P12314 16-292): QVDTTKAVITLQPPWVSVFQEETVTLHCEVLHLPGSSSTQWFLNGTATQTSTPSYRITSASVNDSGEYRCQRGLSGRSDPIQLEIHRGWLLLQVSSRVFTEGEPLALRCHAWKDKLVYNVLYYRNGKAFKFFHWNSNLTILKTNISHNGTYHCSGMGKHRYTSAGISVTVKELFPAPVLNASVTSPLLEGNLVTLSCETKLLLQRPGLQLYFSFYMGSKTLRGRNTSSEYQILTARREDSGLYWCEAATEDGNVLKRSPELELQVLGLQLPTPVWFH
Chain of human FcγRIIA_131R (CD32a) extracellular domain (human) (P12318 34-217 H167R): as the sequence (P12318 34-217) above, with H134R counted along it
Chain of human FcγRIIIA_F158 (CD16a) extracellular domain (human) (P08637 17-208): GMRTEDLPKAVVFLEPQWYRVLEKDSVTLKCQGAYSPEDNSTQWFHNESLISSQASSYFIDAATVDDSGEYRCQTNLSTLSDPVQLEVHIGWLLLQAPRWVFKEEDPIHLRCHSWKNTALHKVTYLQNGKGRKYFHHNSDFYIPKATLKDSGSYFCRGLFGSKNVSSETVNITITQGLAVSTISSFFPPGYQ
Chain of human FcγRIIb (CD32b) extracellular domain (human) (P31994 43-217): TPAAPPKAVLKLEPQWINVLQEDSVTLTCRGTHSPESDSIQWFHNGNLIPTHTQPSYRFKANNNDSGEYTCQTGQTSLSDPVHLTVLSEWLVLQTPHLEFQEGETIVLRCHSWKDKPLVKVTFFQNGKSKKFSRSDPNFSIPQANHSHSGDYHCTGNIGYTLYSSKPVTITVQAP

As for Human WT IgG1 Fc (antibody), the Kd turned out to be 900 nM in test [1]; 500 nM in test [2]; 500 nM in test [3]; 1900 nM in test [4]; 0.0426 nM in test [5].
